Experimental data: US20220119448A1 (ZHEJIANG DOER BIOLOGICS, published 2022)

Key:
[1] = target: T1, VEGF (UniProt P15692-4 27-191, limits assumed, biotin-labelled (Sulfo-NHS biotin, molar ratio 2:1) in the BLI assay; unlabelled in the competition ELISA); assay: BLI (Octet-QK), biotin-VEGF on SA probe; repeat 1
T1 construct: also called biotin-labeled VEGF
Excerpt: (§1) The binding affinities of the fusion proteins were detected using BLI (Bio-layer inteferometry, ForteBio). […] Excess biotin not involved in labeling was removed by dialysis. […] The buffer used in the experiment was PBS (containing 0.1% Tween-20). […] Based on the program settings, the fusion proteins were bound, and then dissociated in PBST solution, to obtain the experimental curves. According to the result analysis software of Octet-QK, local full was used to fit the curves of the experimental results, then kon, kdis and Kd were determined.

[2] = target: T1, VEGF; assay: BLI (Octet-QK), biotin-VEGF on SA probe; repeat 2
Excerpt: as §1

[3] = target: T1, VEGF; assay: BLI (Octet-QK), biotin-VEGF on SA probe; repeat 3
Excerpt: as §1

[4] = target: T1, VEGF; assay: BLI (Octet-QK), biotin-VEGF on SA probe; average of 3 repeats (STD 0.05)
Excerpt: as §1

[5] = target: T1, VEGF; assay: competition ELISA: inhibition of VEGF binding to plate-coated VEGF Receptor 2 (KDR)
Protocol: (§2) The plate was then blocked with 1% BSA/TBS and placed at 37° C. for 1 h; 1% BSA/TBS was added to the plate, 200 μL per well, and placed at 37° C. for 2 h.
(§3) Then, the stock solutions were diluted by 3 times to a total of 11 concentrations. […] The KDR-coated ELISA plate was washed twice and pat-dried. The mixture was successively transferred to the ELISA plate and placed at 37° C. for 1 h, then the plate was washed for 6 times. […] The plate was placed at 37° C. for 1 h and washed for 6 times. Then, goat anti-rat secondary antibody (Pierce, 31432, QA1969921) diluted at 1:1000 was added, 50 μL per well. The plate was placed at 37° C. for 1 h and washed for 6 times. Color developing solution was added after reaction, and the plated was incubated at 37° C. for 15 min. Stop buffer was added to terminate the color reaction. OD450 values were read on a microplate reader.

[6] = target: T1, VEGF; assay: competition ELISA: sample pre-mixed with VEGF, mixture put on a plate coated with VEGF Receptor 2 (KDR), bound VEGF detected with mouse anti-human VEGF antibody, OD450; blocked ligand-receptor pair VEGF/KDR
Protocol: as §2, §3

[7] = target: GLP-2R (GLP-2 receptor) on GLP-2R/Luc-CHO cells; assay: cell-based or functional assay
[8] = target: T1, VEGF; assay: BLI (Octet-QK), biotin-VEGF on SA probe; average of 3 repeats (STD 0.10)
Excerpt: as §1

T1 sequence (P15692 other isoform, or with tags, fused parts or gaps limits assumed): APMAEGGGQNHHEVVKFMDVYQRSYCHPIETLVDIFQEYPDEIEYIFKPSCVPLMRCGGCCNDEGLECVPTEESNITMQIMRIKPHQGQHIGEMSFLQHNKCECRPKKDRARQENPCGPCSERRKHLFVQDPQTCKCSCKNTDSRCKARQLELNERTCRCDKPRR

Row | Binder | Kd [1] [nM] | Kd [2] [nM] | Kd [3] [nM] | Kd [4] [nM] | IC50 [5] [nM] | IC50 (read off the curve) [6] [nM] | in vitro cytological activity, EC50 (luciferase reporter, GLP-2R/Luc-CHO cells) [7] [nM] | Kd [8] [nM]
1 | PU73x49-ARVEGF (designed binder, also called PU-ARVEGF fusion protein) APAEAPAAAEEAPPAEPAPEAPAEAPAAAEEAPPAEPAPEAPAEAPAAAEEAPPAEPAPEAPAEAPAAAEEAPPAEPAPEAPAEAPAAAEEAPPAEPAPEAPAEAPAAAEEAPPAEPAPEAPAEAPAAAEEAPPAEPAPEAPAEAPAAAEEAPPAEPAPEAPAEAPAAAEEAPPAEPAPEAPAEAPAAAEEAPPAEPAPEAPAEAPAAAEEAPPAEPAPEAPAEAPAAAEEAPPAEPAPEAPAEAPAAAEEAPPAEPAPEAPAEAPAAAEEAPPAEPAPEAPAEAPAAAEEAPPAEPAPEAPAEAPAAAEEAPPAEPAPEAPAEAPAAAEEAPPAEPAPEAPAEAPAAAEEAPPAEPAPEAPAEAPAAAEEAPPAEPAPEAPAEAPAAAEEAPPAEPAPEAPAEAPAAAEEAPPAEPAPEAPAEAPAAAEEAPPAEPAPEAPAEAPAAAEEAPPAEPAPEAPAEAPAAAEEAPPAEPAPEAPAEAPAAAEEAPPAEPAPEAPAEAPAAAEEAPPAEPAPEAPAEAPAAAEEAPPAEPAPEAPAEAPAAAEEAPPAEPAPEAPAEAPAAAEEAPPAEPAPEAPAEAPAAAEEAPPAEPAPEAPAEAPAAAEEAPPAEPAPEAPAEAPAAAEEAPPAEPAPEAPAEAPAAAEEAPPAEPAPEAPAEAPAAAEEAPPAEPAPEAPAEAPAAAEEAPPAEPAPEAPAEAPAAAEEAPPAEPAPEAPAEAPAAAEEAPPAEPAPEAPAEAPAAAEEAPPAEPAPEAPAEAPAAAEEAPPAEPAPEAPAEAPAAAEEAPPAEPAPEAPAEAPAAAEEAPPAEPAPEAPAEAPAAAEEAPPAEPAPEAPAEAPAAAEEAPPAEPAPEAPAEAPAAAEEAPPAEPAPEAPAEAPAAAEEAPPAEPAPEAPAEAPAAAEEAPPAEPAPEAPAEAPAAAEEAPPAEPAPEAPAEAPAAAEEAPPAEPAPEAPAEAPAAAEEAPPAEPAPEGSDLDKKLLEAARAGQDDEVRILMANGADVNARDSTGWTPLHLAAPWGHPEIVEVLLKNGADVNAADFQGWTPLHLAAAVGHLEIVEVLLKYGADVNAQDKFGKTAFDISIDNGNEDLAEILQKAA | 0.62 | 0.61 | 0.7 | 0.64 | 0.55 | ~0.3 | – | –
2 | GLP2G-PU98x43 (ligand) HGDGSFSDEMNTILDNLAARDFINWLIQTKITDAEPAAPAPAEPAAPAPEAPAAEPAAPAPAEPAAPAPEAPAAEPAAPAPAEPAAPAPEAPAAEPAAPAPAEPAAPAPEAPAAEPAAPAPAEPAAPAPEAPAAEPAAPAPAEPAAPAPEAPAAEPAAPAPAEPAAPAPEAPAAEPAAPAPAEPAAPAPEAPAAEPAAPAPAEPAAPAPEAPAAEPAAPAPAEPAAPAPEAPAAEPAAPAPAEPAAPAPEAPAAEPAAPAPAEPAAPAPEAPAAEPAAPAPAEPAAPAPEAPAAEPAAPAPAEPAAPAPEAPAAEPAAPAPAEPAAPAPEAPAAEPAAPAPAEPAAPAPEAPAAEPAAPAPAEPAAPAPEAPAAEPAAPAPAEPAAPAPEAPAAEPAAPAPAEPAAPAPEAPAAEPAAPAPAEPAAPAPEAPAAEPAAPAPAEPAAPAPEAPAAEPAAPAPAEPAAPAPEAPAAEPAAPAPAEPAAPAPEAPAAEPAAPAPAEPAAPAPEAPAAEPAAPAPAEPAAPAPEAPAAEPAAPAPAEPAAPAPEAPAAEPAAPAPAEPAAPAPEAPAAEPAAPAPAEPAAPAPEAPAAEPAAPAPAEPAAPAPEAPAAEPAAPAPAEPAAPAPEAPAAEPAAPAPAEPAAPAPEAPAAEPAAPAPAEPAAPAPEAPAAEPAAPAPAEPAAPAPEAPAAEPAAPAPAEPAAPAPEAPAAEPAAPAPAEPAAPAPEAPAAEPAAPAPAEPAAPAPEAPAAEPAAPAPAEPAAPAPEAPAAEPAAPAPAEPAAPAPEAPAAEPAAPAPAEPAAPAPEAPAAEPAAPAPAEPAAPAPEAPAAEPAAPAPAEPAAPAPEAPAAEPAAPAPAEPAAPAPEAPAAEPAAPAPAEPAAPAPEAPA | – | – | – | – | – | – | 311 | –
3 | ankyrin repeat protein binding to VEGF (ARVEGF) (designed binder, Its preparation and any tag are not described) GSDLDKKLLEAARAGQDDEVRILMANGADVNARDSTGWTPLHLAAPWGHPEIVEVLLKNGADVNAADFQGWTPLHLAAAVGHLEIVEVLLKYGADVNAQDKFGKTAFDISIDNGNEDLAEILQKAA | 0.58 | 0.69 | 0.77 | – | 0.65 | ~0.3 | – | 0.68
4 | GLP2G-PU141x47 (ligand) HGDGSFSDEMNTILDNLAARDFINWLIQTKITDAPAAPPEEAAAEPPAAEAAPAPAAPPEEAAAEPPAAEAAPAPAAPPEEAAAEPPAAEAAPAPAAPPEEAAAEPPAAEAAPAPAAPPEEAAAEPPAAEAAPAPAAPPEEAAAEPPAAEAAPAPAAPPEEAAAEPPAAEAAPAPAAPPEEAAAEPPAAEAAPAPAAPPEEAAAEPPAAEAAPAPAAPPEEAAAEPPAAEAAPAPAAPPEEAAAEPPAAEAAPAPAAPPEEAAAEPPAAEAAPAPAAPPEEAAAEPPAAEAAPAPAAPPEEAAAEPPAAEAAPAPAAPPEEAAAEPPAAEAAPAPAAPPEEAAAEPPAAEAAPAPAAPPEEAAAEPPAAEAAPAPAAPPEEAAAEPPAAEAAPAPAAPPEEAAAEPPAAEAAPAPAAPPEEAAAEPPAAEAAPAPAAPPEEAAAEPPAAEAAPAPAAPPEEAAAEPPAAEAAPAPAAPPEEAAAEPPAAEAAPAPAAPPEEAAAEPPAAEAAPAPAAPPEEAAAEPPAAEAAPAPAAPPEEAAAEPPAAEAAPAPAAPPEEAAAEPPAAEAAPAPAAPPEEAAAEPPAAEAAPAPAAPPEEAAAEPPAAEAAPAPAAPPEEAAAEPPAAEAAPAPAAPPEEAAAEPPAAEAAPAPAAPPEEAAAEPPAAEAAPAPAAPPEEAAAEPPAAEAAPAPAAPPEEAAAEPPAAEAAPAPAAPPEEAAAEPPAAEAAPAPAAPPEEAAAEPPAAEAAPAPAAPPEEAAAEPPAAEAAPAPAAPPEEAAAEPPAAEAAPAPAAPPEEAAAEPPAAEAAPAPAAPPEEAAAEPPAAEAAPAPAAPPEEAAAEPPAAEAAPAPAAPPEEAAAEPPAAEAAPAPAAPPEEAAAEPPAAEAAPAPAAPPEEAAAEPPAAEAAPAPAAPPEEAAAEPPAAEAAPAPAAPPEEAAAEPPAAEAAPAPAAPPEEAAAEPPAAEAAP | – | – | – | – | – | – | 299 | –
5 | GLP2G-PU69x45 (ligand) HGDGSFSDEMNTILDNLAARDFINWLIQTKITDAPPEAPEAPEAAPAAPEPAEAPPEAPEAPEAAPAAPEPAEAPPEAPEAPEAAPAAPEPAEAPPEAPEAPEAAPAAPEPAEAPPEAPEAPEAAPAAPEPAEAPPEAPEAPEAAPAAPEPAEAPPEAPEAPEAAPAAPEPAEAPPEAPEAPEAAPAAPEPAEAPPEAPEAPEAAPAAPEPAEAPPEAPEAPEAAPAAPEPAEAPPEAPEAPEAAPAAPEPAEAPPEAPEAPEAAPAAPEPAEAPPEAPEAPEAAPAAPEPAEAPPEAPEAPEAAPAAPEPAEAPPEAPEAPEAAPAAPEPAEAPPEAPEAPEAAPAAPEPAEAPPEAPEAPEAAPAAPEPAEAPPEAPEAPEAAPAAPEPAEAPPEAPEAPEAAPAAPEPAEAPPEAPEAPEAAPAAPEPAEAPPEAPEAPEAAPAAPEPAEAPPEAPEAPEAAPAAPEPAEAPPEAPEAPEAAPAAPEPAEAPPEAPEAPEAAPAAPEPAEAPPEAPEAPEAAPAAPEPAEAPPEAPEAPEAAPAAPEPAEAPPEAPEAPEAAPAAPEPAEAPPEAPEAPEAAPAAPEPAEAPPEAPEAPEAAPAAPEPAEAPPEAPEAPEAAPAAPEPAEAPPEAPEAPEAAPAAPEPAEAPPEAPEAPEAAPAAPEPAEAPPEAPEAPEAAPAAPEPAEAPPEAPEAPEAAPAAPEPAEAPPEAPEAPEAAPAAPEPAEAPPEAPEAPEAAPAAPEPAEAPPEAPEAPEAAPAAPEPAEAPPEAPEAPEAAPAAPEPAEAPPEAPEAPEAAPAAPEPAEAPPEAPEAPEAAPAAPEPAEAPPEAPEAPEAAPAAPEPAEAPPEAPEAPEAAPAAPEPAEAPPEAPEAPEAAPAAPEPAEAPPEAPEAPEAAPAAPEPAEAPPEAPEAPEAAPAAPEPAE | – | – | – | – | – | – | 279 | –
